In patent US6344321, “Nucleic acid ligands which bind to hepatocyte growth factor/scatter factor (HGF/SF) or its receptor c-met” (Gilead Sciences, Inc.):

Target: HGF (hepatocyte growth factor/scatter factor) (UniProt P14210;P14210 P14210:32-494,P14210:495-728)
Assay: filter; HBSMC, 37C
Conditions: tags: R&D Systems
Experimental: In binding reactions, RNA concentrations were kept as low as possible—between 1 and 20 pM—to ensure equilibrium in conditions of protein excess. Oligonucleotides were incubated for 15 minutes at 37° C. with varying amounts of the protein in 43 µl of the binding buffer. Thirty-two microliters of each binding mixture placed on pre-wet 0.45 µm nitrocellulose filters under suction. Each well was immediately washed with 0.5 ml binding buffer. The amount of radioactivity retained on the filters was quantitated by imaging. The radioactivity that bound to filters in the absence of protein was used for background correction. The percentage of input oligonucleotide retained on each filter spot was plotted against the corresponding log protein concentration. The nonlinear least square method was used to obtain the dissociation constant (K_d; reference Jellinek, Lynott et al. 1993, Proc. Natl. Acad. Sci. USA. 90:11227–31).

Sequence of HGF (hepatocyte growth factor/scatter factor) (P14210 32-494, chain 1 of 2): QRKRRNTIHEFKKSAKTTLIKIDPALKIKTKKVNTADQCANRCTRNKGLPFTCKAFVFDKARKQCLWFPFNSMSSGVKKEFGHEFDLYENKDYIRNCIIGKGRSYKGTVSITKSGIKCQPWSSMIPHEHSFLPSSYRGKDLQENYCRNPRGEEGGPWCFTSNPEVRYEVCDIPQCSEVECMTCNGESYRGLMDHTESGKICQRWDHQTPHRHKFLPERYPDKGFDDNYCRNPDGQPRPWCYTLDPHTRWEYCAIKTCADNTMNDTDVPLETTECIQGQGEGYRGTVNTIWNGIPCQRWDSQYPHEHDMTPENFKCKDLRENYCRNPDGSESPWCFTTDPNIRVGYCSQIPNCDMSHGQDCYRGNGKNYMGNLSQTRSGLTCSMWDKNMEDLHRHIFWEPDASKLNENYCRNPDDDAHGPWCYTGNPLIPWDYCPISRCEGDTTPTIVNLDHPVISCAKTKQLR
Sequence of HGF (hepatocyte growth factor/scatter factor) (P14210 495-728, chain 2 of 2): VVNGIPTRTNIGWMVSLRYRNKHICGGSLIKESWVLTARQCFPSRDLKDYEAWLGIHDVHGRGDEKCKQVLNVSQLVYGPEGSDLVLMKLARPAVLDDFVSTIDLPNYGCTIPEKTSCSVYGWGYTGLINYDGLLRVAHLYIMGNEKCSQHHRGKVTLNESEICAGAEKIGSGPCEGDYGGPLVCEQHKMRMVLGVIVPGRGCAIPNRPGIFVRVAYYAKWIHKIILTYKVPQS

Binder | Kd [pM]
8-3 (ssRNA, 2'-F pyrimidines) RNA: GGGAGGACGAUGCGGAUCCCGCGACCAGGGCGUUUCUUCCUCGUCCCAGACGACUCGCCCGA | 130
11-6 (ssRNA, 2'-F pyrimidines) RNA: GGGAGGACGAUGCGGGACGCGUUGAUUCAUCGUCUUAUCCUGCUGCAGACGACUCGCCCGA | 240
8-125 (ssRNA, 2'-F pyrimidines) RNA: GGGAGGACGAUGCGGUGUGAACCUGUUUAUGUCAUCUUUUGUCGUCAGACGACUCGCCCGA | 75
11-59 (ssRNA, 2'-F pyrimidines) RNA: GGGAGGACGAUGCGGCGUGAGCCUGUAUAUGUCAUUGUUCUCCGGCAGACGACUCGCCCGA | 110
8-17 (ssRNA, 2'-F pyrimidines) RNA: GGGAGGACGAUGCGGGCGGCUCGAUGUCGUCUUAUCCCUUUGCCCCAGACGACUCGCCCGA | 95
8-158 (ssRNA, 2'-F pyrimidines) RNA: GGGAGGACGAUGCGGCCGGCUCGAUGUCGUCUUACCCCUUUGCCCCAGACGACUCGCCCGA | 310
11-76 (ssRNA, 2'-F pyrimidines) RNA: GGGAGGACGAUGCGGUCAGCGGCGCGAGCCUGUUUAUGUCUGCUGCAGACGACUCGCCCGA | 76
8-119 (ssRNA, 2'-F pyrimidines) RNA: GGGAGGACGAUGCGGGCCAUUCGAUCGAUUCUCCGCCGGAUCGUGCAGACGACUCGCCCGA | 110
8-113 (ssRNA, 2'-F pyrimidines) RNA: GGGAGGACGAUGCGGUGAAUUCCUCUGGCUGAAAAUGACUUGUGCCAGACGACUCGCCCGA | 83
11-9 (ssRNA, 2'-F pyrimidines) RNA: GGGAGGACGAUGCGGCGUGAGCCUGUUUAUGACCUCGUCCAUGGCCAGACGACUCGCCCGA | 74
11-158 (ssRNA, 2'-F pyrimidines) RNA: GGGAGGACGAUGCGGCGAUAGCCUAUUUAUGACCUCGUCCCCGUGCAGACGACUCGCCCGA | 170
11-217 (ssRNA, 2'-F pyrimidines) RNA: GGGAGGACGAUGCGGCGUGAGCCUUCCAAUGACGUCGUCCUUGGCCAGACGACUCGCCCGA | 71
11-153 (ssRNA, 2'-F pyrimidines) RNA: GGGAGGACGAUGCGGACAGGUAGUCUUCUAUAGCACUUCCUCCCCCAGACGACUCGCCCGA | 190
11-165 (ssRNA, 2'-F pyrimidines) RNA: GGGAGGACGAUGCGGGUUGAUAGGAGUCAUCAUCGUCUUGUCCGCCAGACGACUCGCCCGA | 73
11-212 (ssRNA, 2'-F pyrimidines) RNA: GGGAGGACGAUGCGGGUUUGAGUUAAACAUCGGUUUUCUCCUGCAGACGACUCGCCCGA | 75
8-101 (ssRNA, 2'-F pyrimidines) RNA: GGGAGGACGAUGCGGGUGACUCAAAAUGGUGAUCCUCGAUUUCCGCCAGACGACUCGCCCGA | 95
8-155 (ssRNA, 2'-F pyrimidines) RNA: GGGAGGACGAUGCGGUGUGAACCUAUUUAUGCCAUCUCGAGUGCCCAGACGACUCGCCCGA | 93
11-222 (ssRNA, 2'-F pyrimidines) RNA: GGGAGGACGAUGCGGACAUAAGUCUUCUAUAGCUCGUCCUUUGUGCAGACGACUCGCCCGA | 77
8-165 (ssRNA, 2'-F pyrimidines) RNA: GGGAGGACGAUGCGGCGAGAGCCUAUUUAUGUCAUCAUGCCUGUGCAGACGACUCGCCCGA | 100
8-114 (ssRNA, 2'-F pyrimidines) RNA: GGGAGGACGAUGCGGCGUGAGCCUAUUUAUGUCAUCAUGUCUGUGCAGACGACUCGCCCGA | 71
8-171 (ssRNA, 2'-F pyrimidines) RNA: GGGAGGACGAUGCGGCGGGAGCCUUUUUAUGUCAUCAUGUCUGUGCAGACGACUCGCCCGA | 120
8-104 (ssRNA, 2'-F pyrimidines) RNA: GGGAGGACGAUGCGGGCGACUCAAUCUGAAUCGUCUUGUCCCGUGCAGACGACUCGCCCGA | 50
8-126 (ssRNA, 2'-F pyrimidines) RNA: GGGAGGACGAUGCGGGUGACUCAAAAUGGUGAUCCUCGUUUCCGCCAGACGACUCGCCCGA | 99
11-8 (ssRNA, 2'-F pyrimidines) RNA: GGGAGGACGAUGCGGUCAGUAUGACUUUUAUAGCACGUUCGCCCCAGACGACUCGCCCGA | 150

Binder | Kd [pM]
11-157 (ssRNA, 2'-F pyrimidines) RNA: GGGAGGACGAUGCGGUCAGAAUGACUUUCAUAGCACGCUUUCCCCAGACGACUCGCCCGA | 260
11-123 (ssRNA, 2'-F pyrimidines) RNA: GGGAGGACGAUGCGGGUGACUCAAAAUGGUGAUCCUCGUUUCGCCAGACGACUCGCCCGA | 90
11-208 (ssRNA, 2'-F pyrimidines) RNA: GGGAGGACGAUGCGGGUUUGAGUGACGAUCGUCUUGUCCCAUGUGCAGACGACUCGCCCGA | 60
11-110 (ssRNA, 2'-F pyrimidines) RNA: GGGAGGACGAUGCGGUGAUUACCUAUUUAUGUCAUGCUCCUCCCCCAGACGACUCGCCCGA | 86
11-223 (ssRNA, 2'-F pyrimidines) RNA: GGGAGGACGAUGCGGUCAGUAUGGCUUCUAUAGCUCGUUCCUCGGCAGACGACUCGCCCGA | 120
11-103 (ssRNA, 2'-F pyrimidines) RNA: GGGAGGACGAUGCGGUGAUUACCUAUUAUGUCUCGCCCUCUCCAGACGACUCGCCCGA | 200
11-166 (ssRNA, 2'-F pyrimidines) RNA: GGGAGGACGAUGCGGGUUUGAGUUCUGACACGUCUUGUCCCAUGCCAGACGACUCGCCCGA | 79
11-17 (ssRNA, 2'-F pyrimidines) RNA: GGGAGGACGAUGCGGGUUAGAGCGUGACAGUCGUCUUAUCCCGGGUCACAGACGACUCGCCCGA | 130
11-215 (ssRNA, 2'-F pyrimidines) RNA: GGGAGGACGAUGCGGGUAGUGAGUUUUCAUUGUCUUGUCCCCGUGCAGACGACUCGCCCGA | 91
11-104 (ssRNA, 2'-F pyrimidines) RNA: GGGAGGACGAUGCGGGUUUGAGUGAUGUCGUCUUGUCCCGCCUGCCAGACGACUCGCCCGA | 91
8-118 (ssRNA, 2'-F pyrimidines) RNA: GGGAGGACGAUGCGGGGCGACUUUCCUCCAAUUCUCACCUCUGCACAGACGACUCGCCCGA | 160
11-151 (ssRNA, 2'-F pyrimidines) RNA: GGGAGGACGAUGCGGUGAGUCAUAGUGUUGAUCGUCGUAUCCCGUCAGACGACUCGCCCGA | 170
11-163 (ssRNA, 2'-F pyrimidines) RNA: GGGAGGACGAUGCGGGCUUGAGUCUUUGAUCGUCUUAUCCCUCGUCAGACGACUCGCCCGA | 82
8-122 (ssRNA, 2'-F pyrimidines) RNA: GGGAGGACGAUGCGGCGGUGUGAACCUGUUUAUGUCCGCGUACCCCAGACGACUCGCCCGA | 97
8-103 (ssRNA, 2'-F pyrimidines) RNA: GGGAGGACGAUGCGGGCCGAAAAUUCGUCGACAUCUCCCUGUCUGCAGACGACUCGCCCGA | 120
11-126 (ssRNA, 2'-F pyrimidines) RNA: GGGAGGACGAUGCGGGUUUGGGUCUUGAUCUCGUCUUGUCCCGUGCAGACGACUCGCCCGA | 170
8-174 (ssRNA, 2'-F pyrimidines) RNA: GGGAGGACGAUGCGGUCGAGCUUCUGAGUUAAACUGGGGCCUCCUCAGACGACUCGCCCGA | 230
11-7 (ssRNA, 2'-F pyrimidines) RNA: GGGAGGACGAUGCGGGUGGAGUCAAAUCGUCUUGUCCCUUGUCCUCAGACGACUCGCCCGA | 110
8-112 (ssRNA, 2'-F pyrimidines) RNA: GGGAGGACGAUGCGGUCCCGAAUUUAAGUGCGUUUCCUCCGCGUCCAGACGACUCGCCCGA | 130
8-154 (ssRNA, 2'-F pyrimidines) RNA: GGGAGGACGAUGCGGUCCCAAGAUUCAGGGCGUUUCUUCCUCGUCCAGACGACUCGCCCGA | 120
8-123 (ssRNA, 2'-F pyrimidines) RNA: GGGAGGACGAUGCGGUCCCGAGUUUGAGGGCGUUUCUUCUUCGUCCAGACGACUCGCCCGA | 210
11-221 (ssRNA, 2'-F pyrimidines) RNA: GGGAGGACGAUGCGGGCAGAGCGAAAAUCGUCUUGUCCCCGACGCCAGACGACUCGCCCGA | 62
11-65 (ssRNA, 2'-F pyrimidines) RNA: GGGAGGACGAUGCGGUGAUAACCUGUUUAUGCCAUCGUGCUGGGCCAGACGACUCGCCCGA | 110
